Measurements taken from publication doi:10.1101/2021.03.15.435138.

Target: C-terminal hexahistidyl-tagged GluN3A subunit (UniProt Q9R1M7)
Assay: pull-down

Sequence of C-terminal hexahistidyl-tagged GluN3A subunit (Q9R1M7 24-1135): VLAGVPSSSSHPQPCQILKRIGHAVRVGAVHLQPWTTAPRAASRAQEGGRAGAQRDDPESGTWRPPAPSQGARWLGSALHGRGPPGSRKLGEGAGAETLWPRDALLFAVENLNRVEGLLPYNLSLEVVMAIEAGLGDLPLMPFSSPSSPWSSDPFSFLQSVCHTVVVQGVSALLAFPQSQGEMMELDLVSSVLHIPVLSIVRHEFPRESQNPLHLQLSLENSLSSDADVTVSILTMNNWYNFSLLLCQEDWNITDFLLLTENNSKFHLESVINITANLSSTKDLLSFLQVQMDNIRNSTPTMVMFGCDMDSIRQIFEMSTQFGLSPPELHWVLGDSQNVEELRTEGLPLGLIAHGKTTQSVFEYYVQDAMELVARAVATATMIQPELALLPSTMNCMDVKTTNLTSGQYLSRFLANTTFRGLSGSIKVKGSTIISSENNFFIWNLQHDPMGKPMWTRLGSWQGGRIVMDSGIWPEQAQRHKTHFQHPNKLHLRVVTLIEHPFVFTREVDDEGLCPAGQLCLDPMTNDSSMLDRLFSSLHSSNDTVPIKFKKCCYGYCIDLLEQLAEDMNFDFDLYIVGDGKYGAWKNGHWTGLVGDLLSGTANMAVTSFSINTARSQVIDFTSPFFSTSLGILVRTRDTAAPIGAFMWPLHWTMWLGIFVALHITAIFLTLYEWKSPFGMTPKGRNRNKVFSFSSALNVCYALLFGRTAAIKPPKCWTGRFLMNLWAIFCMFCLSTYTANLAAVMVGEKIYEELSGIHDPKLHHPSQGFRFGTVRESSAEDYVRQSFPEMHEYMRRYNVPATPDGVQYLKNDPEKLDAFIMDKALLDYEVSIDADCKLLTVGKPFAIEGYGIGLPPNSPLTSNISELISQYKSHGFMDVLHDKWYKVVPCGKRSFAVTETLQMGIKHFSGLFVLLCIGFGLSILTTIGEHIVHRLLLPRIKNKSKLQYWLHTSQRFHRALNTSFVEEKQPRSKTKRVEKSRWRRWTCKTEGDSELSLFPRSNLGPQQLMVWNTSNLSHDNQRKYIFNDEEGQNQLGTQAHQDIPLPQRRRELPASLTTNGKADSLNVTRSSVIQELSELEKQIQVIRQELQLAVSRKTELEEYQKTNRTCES

Substance	stoichiometry N
GluN1-1a (splice variant 1a) NMDA receptor subunit, wild type (from UniProt P35439 19-938)	1
GluN1^1-802, M4-deleted GluN1 (from UniProt P35439 19-802) (domain or fragment)	1
